Source: article PMC12019227, “Phase separation of hnRNPA1 and TERRA regulates telomeric stability”

B1: Telo DNA (TTAGGG)2 (ssDNA)
DNA: TTAGGGTTAGGG
B2: TERRA (UUAGGG)2 (ssRNA)
RNA: UUAGGGUUAGGG

Key:
[1] = biological target: UP1 R82A/K113A (human, UniProt P09651 1-196, R82A;K113A); experiment: ITC; ITC: 20 mM Tris-HCl pH 7.5, 150 mM NaCl, 20 C; protein 160 uM in syringe, RNA 10 uM in cell; details: protein: recombinant, tags: C-terminal His6, single strand
[2] = biological target: UP1 wt (human, UniProt P09651 1-196); experiment: as above; details: protein: recombinant, tags: C-terminal His6, chain copies: 2, single strand
[3] = biological target: T1, UP1 D42R/R146A (human, UniProt P09651 1-196, D42R;R146A); experiment: as above; details: protein: recombinant; tags: C-terminal His6; single strand
[4] = biological target: UP1 Q12A/G147A (human, UniProt P09651 1-196, Q12A;G147A); experiment: as above; details: protein: recombinant, tags: C-terminal His6, single strand
[5] = biological target: UP1 R82A (human, UniProt P09651 1-196, R82A); experiment: as above; details: protein: recombinant; tags: C-terminal His6; single strand; crystal has 2 antiparallel strands
[6] = biological target: UP1 V90A/R92A/S95A (human, UniProt P09651 1-196, V90A;R92A;S95A); experiment: as above; details: protein: recombinant; tags: C-terminal His6; single strand; crystal has 2 antiparallel strands
[7] = biological target: UP1 R55A (human, UniProt P09651 1-196, R55A); experiment: as above; details: protein: recombinant; tags: C-terminal His6; single strand; crystal has 2 antiparallel strands
[8] = biological target: UP1 R146A (human, UniProt P09651 1-196, R146A); experiment: as above; details: protein: recombinant; tags: C-terminal His6; single strand; crystal has 2 antiparallel strands
[9] = biological target: UP1 K113A (human, UniProt P09651 1-196, K113A); experiment: as above; details: protein: recombinant; tags: C-terminal His6; single strand; crystal has 2 antiparallel strands
[10] = biological target: UP1 D42R (human, UniProt P09651 1-196, D42R); experiment: as above; details: protein: recombinant; tags: C-terminal His6; single strand; crystal has 2 antiparallel strands
[11] = biological target: T1, UP1 D42R/R146A; experiment: ITC; text: could not bind RNA at all (conflicts with table); ITC: 20 mM Tris-HCl pH 7.5, 150 mM NaCl, 20 C; protein 160 uM in syringe, RNA 10 uM in cell; details: protein: recombinant; tags: C-terminal His6; single strand; crystal has 2 antiparallel strands
[12] = crystal has 2 antiparallel strands

UP1 R82A/K113A, sequence (P09651 1-196 R82A/K113A): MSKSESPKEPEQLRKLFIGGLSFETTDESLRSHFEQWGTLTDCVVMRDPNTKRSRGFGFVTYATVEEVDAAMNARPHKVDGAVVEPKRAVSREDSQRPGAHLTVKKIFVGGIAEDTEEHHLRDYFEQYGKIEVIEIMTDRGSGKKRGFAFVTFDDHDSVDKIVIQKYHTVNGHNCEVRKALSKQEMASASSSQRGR
UP1 Q12A/G147A, sequence (P09651 1-196 Q12A/G147A): as the sequence (P09651 1-196 R82A/K113A) above, with Q12A, A82R, A113K, G147A counted along it
T1 sequence (P09651 1-196 D42R/R146A): as the sequence (P09651 1-196 R82A/K113A) above, with D42R, A82R, A113K, R146A counted along it
UP1 wt, sequence (P09651 1-196): as the sequence (P09651 1-196 R82A/K113A) above, with A82R, A113K counted along it
UP1 R55A, sequence (P09651 1-196 R55A): as the sequence (P09651 1-196 R82A/K113A) above, with R55A, A82R, A113K counted along it
UP1 K113A, sequence (P09651 1-196 K113A): as the sequence (P09651 1-196 R82A/K113A) above, with A82R counted along it
UP1 R146A, sequence (P09651 1-196 R146A): as the sequence (P09651 1-196 R82A/K113A) above, with A82R, A113K, R146A counted along it
UP1 R82A, sequence (P09651 1-196 R82A): as the sequence (P09651 1-196 R82A/K113A) above, with A113K counted along it
UP1 V90A/R92A/S95A, sequence (P09651 1-196 V90A/R92A/S95A): as the sequence (P09651 1-196 R82A/K113A) above, with A82R, V90A, R92A, S95A, A113K counted along it
UP1 D42R, sequence (P09651 1-196 D42R): as the sequence (P09651 1-196 R82A/K113A) above, with D42R, A82R, A113K counted along it

Binder | Kd [1] | Kd [2] | Kd [3] | Kd [4] | Kd [5] | Kd [1, 12] | Kd [6] | Kd [7] | Kd [8] | Kd [9] | Kd [2, 12] | Kd [4, 12] | Kd [10] | Kd [11]
B1 | 0.1 ± 0.03 µM | 0.08 ± 0.02 µM | 4.03 ± 1.02 µM | 0.21 ± 0.08 µM | – | – | – | – | – | – | – | – | – | –
B2 | – | – | – | – | 0.46 ± 0.07 µM | 0.77 ± 0.16 µM | 1.41 ± 0.12 µM | 0.52 ± 0.04 µM | 2.12 ± 0.5 µM | 0.3 ± 0.02 µM | 0.27 ± 0.02 µM | 0.12 ± 0.02 µM | 0.63 ± 0.12 µM | 2.26 ± 0.31 µM
